{"source": "paper PMC4403819", "molecular_target": "T1, OmpR-His6 non-phosphorylated (Yersinia enterocolitica Ye9 (O:9)?) (UniProt P74982)", "T1 sequence": "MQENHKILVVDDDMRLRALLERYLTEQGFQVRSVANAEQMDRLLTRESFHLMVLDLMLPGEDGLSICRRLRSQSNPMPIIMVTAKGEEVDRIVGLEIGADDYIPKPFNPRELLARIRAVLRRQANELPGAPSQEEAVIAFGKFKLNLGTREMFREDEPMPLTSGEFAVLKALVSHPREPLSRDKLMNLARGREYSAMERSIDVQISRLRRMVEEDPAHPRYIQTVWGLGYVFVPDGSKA", "experiment": "EMSA", "details": "Binding buffer, pH and temperature not given ([…]"}
{"sequence": "TGGAATTCATTGCAGCCAGAGGCATTACCCCTCTGTTTTTGCTCATAGATAAACCTCAAGTGTCCGATTTTTAATTTAATTCAATGGATCACAAGCTTTAAAACCCATTGCTGCGTAAATTATATGTGCGTGCTATGGTACATACATTCGTGAATGTATGTAAATCGCACCCCCTCGAAAAAACAACGCTATGGCACGAAAAACCAAACAGCAAGGTACCCA (double strand) [acrR promoter fragment p222]", "values": [{"measurement": "binding", "result": "binds more weakly"}]}
